From the nanobody polyreactivity screen of Harvey et al. (2022)

Assay: yeast display, Sf9 membrane polyspecificity reagent, FACS + sequencing; frameworks hold sequencing errors
Summary of the method: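 Galactose-induced (36–48 hours) yeast carrying a synthetic nanobody display library were exposed to 10% biotinylated, detergent-solubilized Sf9 membrane reagent at 4 °C for 1 hour. FACS followed streptavidin microbead enrichment, using low and high (top ~1%) gates for expression (anti-HA) and reagent binding (streptavidin). Colony PCR, MiSeq 2 × 250 sequencing and CDR-length filtering followed. Labels for polyreactivity reflect the gate of origin.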

## QVQLVESGGGLVQAGGSLRLSCAASGYIFDRNAMGWYRQAPGKERELLAAITKRGGITYYADSVKGRFTISRDNAKNTVYLQMNSLKPEDTAVYYCAADIGYYVYNDYDYWGQGTQVTVSS
  polyreactivity (PSR sort gate): low polyreactivity

## QVQLVESGGGLLQAGGSLRLSCAASGSIFGYYAMGWYRQAPGKERELVAAISRSGGSTYYADSVKGRFTISRDNAKNTVYLQMNSLKPEDTAVYYCAADDYPYGNYYWGQGTQVTVSS
  polyreactivity (PSR sort gate): high polyreactivity

## QVQLVESGGGLVQAGGSLRLSCAASGSIFGSYAKGCYIQAPGKERELVAAITRAGSTNYADSVKGRFTISRDNGKNTVYLQMNSLKPEDTAVYYCNATGKSTYVLSPVPGAYDYWGQGTQVTVSS
  polyreactivity (PSR sort gate): low polyreactivity

## QVQLVESGGGLVQAGGSLRLSCAASGSIFGKNAMGWYRQARGKERELVAAITWSGGSTYYADSVKGRFTISRENAKNTVYLQMNSLKPEDTAVYYCNAVRVRVTSHRIRQLDFGYWGQGTQVTVSS
  polyreactivity (PSR sort gate): low polyreactivity

## QVQLVESGGGLVQAGGSLRLSCAASGSIFFGNAMGWYRQAPGKERELVAAISTTGGSTYYADSVKGRFTISRDNAKNTVYLQMISLKPEDTAVYYCNADRATWWEQWWYDYWGQGTQVTVSS
  polyreactivity (PSR sort gate): low polyreactivity

## QVHLVESGGGLVQAGGSLRLILAASGYIFSSNAMGWYRQAPGKEREFVADISSTGGSTYYADSVKGRFTISRDNAKNTVYCQMNILKPEDTGVYYCAAYIRRYFHYDYWGQGTQVTGSS
  polyreactivity (PSR sort gate): high polyreactivity

## QVQLVESGGGLVQAGGSLRLSCAASGFIFFRNAMGWYRQAPGKERELVAAISSNGGRTYYADSVKGRFTISRDNAKNTVYLQMNSLTPEDTAVYYCAAANPGSEYDYWGQGTQVNVSS
  polyreactivity (PSR sort gate): high polyreactivity

## QVQLVESGGGLVQAGGSLRLSCAASGITFYIYAMGWYRQAPGKERELVATISWSDGRTYYADSVKGRFTISRDNAKTTVYLQMNSLKPEDTAVYYCAADWWYYQFDYEYWGQGTQVTVSS
  polyreactivity (PSR sort gate): low polyreactivity

## QFQLVESGGGLVQAGGSLRLSCAASGLIFAYYAMGWYRQAPGKERELVAAISWTGGSTYYADSVKGRFTISRDNAKNTVYLQMNSLKPEDTAVYYCNTVGKPGFYSWGQGTQVTVSS
  polyreactivity (PSR sort gate): high polyreactivity

## QVQLVESGGALVQAGGSLRLSCAASGGILQYNAMGWYRQAPGKEREFVAAITTSGGSTYYADSVKGRFTISRDNAKNTVYLQMNSLKPEDTAVYYCAADSWWGIYYSGYDYWGQGSQVTVSS
  polyreactivity (PSR sort gate): low polyreactivity

## QVQLVESGGGFVQAGVSLRLSCAASGLILVPNTMGWYRQAPGKERELVATITNGGSTNYADSVKGRFTISRDNAKNTVYLQMNSLKPEDTAVSYCNADHSYHIASTRHVDYWGQGTQVTVSS
  polyreactivity (PSR sort gate): low polyreactivity

## QVQLVESGGGLVQAGGSLRLSCAASGLIFSWYAMGWYRQAPGKEREFVAGISKGGDSTYYADSVKGRFTISRDNAKNTVYLQMNSLKPEDTAVYYCAADWWQGTSHYWGGAYNYWGQGTQVTVSS
  polyreactivity (PSR sort gate): low polyreactivity

## QEQLVESGGGLVQAGGSLRLSCAASGFIFPGYTMGWYRQAPGKERELVAAISRGSSTFYADSVKGRFTISRDNAKNTVYLQMNSLKPEDTAFYYCNTRVYAITLYDYWGQGTQVTVSS
  polyreactivity (PSR sort gate): low polyreactivity

## QVQLVESGGGLVQAGGSLRLSCAASGFTFVVYDMGWYRQAPGKESELVAVINNSGGSTYYADSVKGRFTISRDNAKNTVSLQMNSLKPEDTAVYYCATRTPVWVNTESDYWGQGTQVTVSS
  polyreactivity (PSR sort gate): low polyreactivity

## QVQLVESGGGLVQAGGSLRLSCAASGFIFRRYAMGWYRQAPGKERELVAAINYSGTSTYYADSVKGRFTISRDNAKNTVYLQMNSLKPEDTAVYYCNARVGYPPYDYWGQGTQVTVSS
  polyreactivity (PSR sort gate): low polyreactivity

## QVQLVESGGGLVQAGGSLRLSCAASGLILANYAMGWYRQAPGKDRELVAAISSSGGSTYYADSVKGRFTISRDNAKNTVYLQMNSLKPEDTAVYYCAAYPLYRRRWTGDYWGQGTQVTVSS
  polyreactivity (PSR sort gate): high polyreactivity

## QVQLVESGGGLVQAGGILRLSCAASGRIFRYNAMGWSRQAPGKERELVAAISSSGSSTYYADSVKGRFTISRDNAKNTVYLQMNSLKPADTAVYYCNARIPSRYYYQYDYWGQGTQVTVSS
  polyreactivity (PSR sort gate): high polyreactivity

## QVQLVESGGGLVQAGGSLRLSCAASGSTCGTYAMGWYRQAPGKERELVATISLSGGSTYYADSVKGRFTISRDNAKNTVYLQMNSLKPEDTAVYYCTVKSSYSEYDYWGQGTQVTVSS
  polyreactivity (PSR sort gate): low polyreactivity

## QVQLVESGGGLVQAGGSLRLSCAASGSTFSTYAMGWYRQAPGKERELVATISKRGGSTYYADSVKGRFTISRDNAKNTVYLQMNSLKAEDTAVYYCDARWQWLNGYYYWGQGTQVSVSS
  polyreactivity (PSR sort gate): high polyreactivity

## QVQLVDSGGGLVQAGGSLSLSCGASGIIFVSNAMGWYRQAPGKERELVATINWSDDSTYYADSVKGRFTISRDNAKNTVYLQMNSLKPEDTAVYYCYWRQGTQVTVSS
  polyreactivity (PSR sort gate): low polyreactivity

## QVQLVESGGGLVQAGGSLRLSCAASGIIFYTYAMGWYRQAPGKERELVAAISRSGVRTYYADSVKGRFTISRDNAKNTVYLQMNSLKPEDTAVYYCAVDKGITQGLYDYWGQGTQVTVSS
  polyreactivity (PSR sort gate): high polyreactivity

## QVQLVESGGGLVQAGGSLRLSCAASGGIFLSNAMGWYRQAPGKERELVAAISRSGGSTYYADSVKGRFTISRDNAKNTVYLQMNSLKPEDTAVYYCAARWTRNYGMNYWGQGTQVTVSS
  polyreactivity (PSR sort gate): high polyreactivity

## QVQLVESGGGLVQAGGSLRLSCAASGGTIYRNAMGWYRQAPGKEREMVASITRGGSTTYADSVKGRFTISRDNAKNTVYLQMNCLKPEATAVYYCNAPGQQRYDSWGQGTQVTVSS
  polyreactivity (PSR sort gate): high polyreactivity

## QVQLVESGGGLGQAGGSLRLSCAASGSTFARNTMGWYRQAPGKERELVAVITRGDSTYYADSVKGRFTISRDNAKNTVNLQMNSLKPEDTAVYYCNAYFRYAYPSKMDYWGQGTQVTVSS
  polyreactivity (PSR sort gate): low polyreactivity

## QVQLVESGGGLVQAGGSLRLSCAASGRIFVRNAMGWYRQAPGKERELVAAITRTGASTYYADSVKGRFTISRDNAKNTVYLQMNSLKPEDTAVYYCNKEIVWHLWYESWGQGTQVTVSS
  polyreactivity (PSR sort gate): high polyreactivity

## QVQLVESGGGLVQAGGSLRLSCAASGLTFYGNAMGWYRQAPGKERELVAAISSSGGTTYYADSVKGRFTISRDNAKNTVYLQMNSLKPEDTAVYYCAARPSGGYESTRTRDYWGQGTQVTVSS
  polyreactivity (PSR sort gate): low polyreactivity

## QVQLVESGGGLVQARGSLRLICAASGSTFWYYAKGWYRQAPGKERELVAAITSGDSTYYADSVKGRFTISRDNAKNTVYLQMNSLKPEDTAVYYCAADLPWEDGYYYYSGYTEYDYWGQGTQVTVSS
  polyreactivity (PSR sort gate): low polyreactivity

## QVQLVESGGGLVQAGGSLRLSCAASGRIFYWNTMGWYRQAPGKEREFVAAITYGGGRTYYADSVKGRFTISRDNAKNTVYLQMNSLKPEDTAVYYCARRIPTLYLDYDYCGQGTQVTVSS
  polyreactivity (PSR sort gate): high polyreactivity

## QVQLVESAGGLVQAGGSLRVSCAASGSTFSRYTMGWYRQAPGKERELVAAIRWSSGRTYYADSVKGRFTISRDNAKNTVYLQMNSLKPEDTAVYYCAALFPRGQADYAYWGQGTPVTVSS
  polyreactivity (PSR sort gate): high polyreactivity

## QVQLVESGGGLVQAGGSLRLSCAASGFIFRYYAMGGYRQAPGKERELVAAISWSGVSTNYADSVKGRFTISRDNAKNTVYLQMNSLTPVDTAVYSCAADGTVRSLGRYYHWGQGTQVTVSS
  polyreactivity (PSR sort gate): low polyreactivity

## QVQLVESGGGLVQAGGSLRLSCAASGITFLDYTMGWYRQAPGKERELVATISKSGGSTYYADSVKGRFTISRDNAKNTVYLQMNSLKPEDTAVYYFAARGFSFWRYYYWGQGTQVTVSS
  polyreactivity (PSR sort gate): high polyreactivity

## QVQLVESGGGLVQAGGSRRIICAASGSIFGYYAMGWYRQAPGKEREFVAAISGRGSSTYYADSVKGRFTISRDNAQNTVYLQMNSLKPEDTAVYYCARVTYKHYGYWGQGTQVTVSS
  polyreactivity (PSR sort gate): high polyreactivity
